Results from patent publication US20120238493A1 (INDIANA UNIVERSITY RESEARCH AND TECHNOLOGY, published 2012).
Where two headings read alike, the source gives them in different places. *1 amine or outer side, *2 acyl side, *3 side chain or, on linkers, in order; H or OH if unused. Where no end group is shown, it is not given here. Side-chain parts run from the residue outwards. [ ]: non-standard residue; d: D form. The star is where a group is joined. γGlu = O=C(O)[C@H](CCC(=O)[*:2])N[*:1]; Palmitoyl = CCCCCCCCCCCCCCCC(=O)*; Aib = CC(C)(N)C(=O)O

How the values were obtained:
Test in all cases: cell-based or functional assay
GLP-1 receptor [1] = molecular target: T1, GLP-1 receptor (UniProt P43220 24-463, limits assumed)
GIP receptor [2] = molecular target: T2, GIP receptor (UniProt P48546 22-466, limits assumed)
T2 sequence (looked up): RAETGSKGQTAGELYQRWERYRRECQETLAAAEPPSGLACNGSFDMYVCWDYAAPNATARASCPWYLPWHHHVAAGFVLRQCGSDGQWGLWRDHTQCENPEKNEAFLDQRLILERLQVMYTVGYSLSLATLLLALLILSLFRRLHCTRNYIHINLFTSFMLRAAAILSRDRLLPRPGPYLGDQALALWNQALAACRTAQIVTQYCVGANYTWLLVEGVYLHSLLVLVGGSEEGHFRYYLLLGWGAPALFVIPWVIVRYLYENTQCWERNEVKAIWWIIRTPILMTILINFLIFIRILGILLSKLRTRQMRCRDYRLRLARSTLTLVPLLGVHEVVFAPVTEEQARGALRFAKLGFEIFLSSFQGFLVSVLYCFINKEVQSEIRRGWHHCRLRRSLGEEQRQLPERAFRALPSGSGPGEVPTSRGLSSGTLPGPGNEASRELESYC

glucagon receptor [3] = molecular target: T3, glucagon receptor (UniProt P47871 26-477, limits assumed)
T3 sequence (P47871 26-477 limits assumed): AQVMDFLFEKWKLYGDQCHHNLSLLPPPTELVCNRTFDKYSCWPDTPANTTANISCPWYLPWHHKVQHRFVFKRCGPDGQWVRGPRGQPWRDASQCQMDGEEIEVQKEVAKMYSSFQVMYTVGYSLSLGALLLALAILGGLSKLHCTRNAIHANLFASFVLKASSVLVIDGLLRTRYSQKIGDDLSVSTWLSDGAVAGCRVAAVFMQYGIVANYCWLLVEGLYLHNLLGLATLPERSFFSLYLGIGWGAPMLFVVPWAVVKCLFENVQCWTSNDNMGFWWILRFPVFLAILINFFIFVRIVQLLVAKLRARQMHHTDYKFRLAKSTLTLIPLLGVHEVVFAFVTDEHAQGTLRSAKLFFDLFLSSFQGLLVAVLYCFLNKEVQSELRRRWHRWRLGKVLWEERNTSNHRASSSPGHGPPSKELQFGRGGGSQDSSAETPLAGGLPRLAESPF

GLP-1 receptor [4] = molecular target: T1, GLP-1 receptor; remark: listed apart in the source
GIP receptor [5] = molecular target: T2, GIP receptor; remark: listed apart in the source
glucagon receptor [6] = molecular target: T3, glucagon receptor; remark: listed apart in the source
GLP-1 receptor [7] = molecular target: T1, GLP-1 receptor; remark: listed apart in the source
GIP receptor [8] = molecular target: T2, GIP receptor; remark: listed apart in the source
glucagon receptor [9] = molecular target: T3, glucagon receptor; remark: listed apart in the source
GLP-1 receptor [10] = molecular target: T1, GLP-1 receptor; remark: listed apart in the source
GIP receptor [11] = molecular target: T2, GIP receptor; remark: listed apart in the source
glucagon receptor [12] = molecular target: T3, glucagon receptor; remark: listed apart in the source
GLP-1 receptor [13] = molecular target: T1, GLP-1 receptor; remark: listed apart in the source
GIP receptor [14] = molecular target: T2, GIP receptor; remark: listed apart in the source
glucagon receptor [15] = molecular target: T3, glucagon receptor; remark: listed apart in the source

B1: Analog No. 62: Aib2, E3, K10acyl, E16, Aib20, E21, L27, D28, G29 + CEX (SEQ ID NO: 38) (peptide)
peptide: H[Aib]EGTFTSDK([γGlu-C16])SKYLDERRA[Aib]EFVQWLLDGGPSSGAPPPS-NH2
EC50 (cAMP reporter) (GLP-1 receptor [1]): 0.008 nM | EC50 (cAMP reporter) (GIP receptor [2]): 0.012 nM | EC50 (cAMP reporter) (glucagon receptor [3]): 0.127 nM | activity (cAMP reporter), column GLP (GLP-1 receptor [4]): 0.008 | activity (cAMP reporter), column GIP (GIP receptor [5]): 0.012 | activity (cAMP reporter), column Glu (glucagon receptor [6]): 0.127

B2: dual acylated peptide of SEQ ID NO: 163 (peptide)
peptide: H[Aib]QGTFTSDK([γGlu-Palmitoyl])SKYLDERAAQDFVQWLLDGGPSSGAPPPSK([γGlu-Palmitoyl])-NH2
modifications: N-terminus assumed
SMILES: CCCCCCCCCCCCCCCC(=O)N[C@@H](CCC(=O)NCCCC[C@H](NC(=O)[C@H](CO)NC(=O)[C@@H]1CCCN1C(=O)[C@@H]1CCCN1C(=O)[C@@H]1CCCN1C(=O)[C@H](C)NC(=O)CNC(=O)[C@H](CO)NC(=O)[C@H](CO)NC(=O)[C@@H]1CCCN1C(=O)CNC(=O)CNC(=O)[C@H](CC(=O)O)NC(=O)[C@H](CC(C)C)NC(=O)[C@H](CC(C)C)NC(=O)[C@H](Cc1c[nH]c2ccccc12)NC(=O)[C@H](CCC(N)=O)NC(=O)[C@@H](NC(=O)[C@H](Cc1ccccc1)NC(=O)[C@H](CC(=O)O)NC(=O)[C@H](CCC(N)=O)NC(=O)[C@H](C)NC(=O)[C@H](C)NC(=O)[C@H](CCCNC(=N)N)NC(=O)[C@H](CCC(=O)O)NC(=O)[C@H](CC(=O)O)NC(=O)[C@H](CC(C)C)NC(=O)[C@H](Cc1ccc(O)cc1)NC(=O)[C@H](CCCCN)NC(=O)[C@H](CO)NC(=O)[C@H](CCCCNC(=O)CC[C@H](NC(=O)CCCCCCCCCCCCCCC)C(=O)O)NC(=O)[C@H](CC(=O)O)NC(=O)[C@H](CO)NC(=O)[C@@H](NC(=O)[C@H](Cc1ccccc1)NC(=O)[C@@H](NC(=O)CNC(=O)[C@H](CCC(N)=O)NC(=O)C(C)(C)NC(=O)[C@@H](N)Cc1c[nH]cn1)[C@@H](C)O)[C@@H](C)O)C(C)C)C(N)=O)C(=O)O
EC50 (cAMP, nmole) (GLP-1 receptor [7]): 0.011 nmol | EC50 (cAMP, nmole) (GIP receptor [8]): 0.024 nmol | EC50 (cAMP, nmole) (glucagon receptor [9]): 0.018 nmol

B3: Glucagon Aib2, K12(rErEC16), Aib16, amide (SEQ ID NO: 45) (peptide)
peptide: H[Aib]QGTFTSDYSKYLD[Aib]RRAQDFVQWLMNT-NH2
modifications: not fully specified (residue 12)
EC50 (cAMP reporter) (GLP-1 receptor [10]): 0.0205 nM | EC50 (cAMP reporter) (GIP receptor [11]): 0.651 nM | EC50 (cAMP reporter) (glucagon receptor [12]): 0.0425 nM

B4: Glucagon Aib2, K9(rErEC16), Aib16, amide (SEQ ID NO: 43) (peptide)
peptide: H[Aib]QGTFTSKYSKYLD[Aib]RRAQDFVQWLMNT-NH2
modifications: not fully specified (residue 9)
EC50 (cAMP reporter) (GLP-1 receptor [10]): 0.232 nM | EC50 (cAMP reporter) (GIP receptor [11]): 15.1 nM | EC50 (cAMP reporter) (glucagon receptor [12]): 1.15 nM

B5: Analog No. 63: Aib2, E3, K10acyl, E16, L27, D28, G29 + CEX (SEQ ID NO: 39) (peptide)
peptide: H[Aib]EGTFTSDK([γGlu-Palmitoyl])SKYLDERAAQDFVQWLLDGGPSSGAPPPS-NH2
modifications: N-terminus assumed
SMILES: CCCCCCCCCCCCCCCC(=O)N[C@@H](CCC(=O)NCCCC[C@H](NC(=O)[C@H](CC(=O)O)NC(=O)[C@H](CO)NC(=O)[C@@H](NC(=O)[C@H](Cc1ccccc1)NC(=O)[C@@H](NC(=O)CNC(=O)[C@H](CCC(=O)O)NC(=O)C(C)(C)NC(=O)[C@@H](N)Cc1c[nH]cn1)[C@@H](C)O)[C@@H](C)O)C(=O)N[C@@H](CO)C(=O)N[C@@H](CCCCN)C(=O)N[C@@H](Cc1ccc(O)cc1)C(=O)N[C@@H](CC(C)C)C(=O)N[C@@H](CC(=O)O)C(=O)N[C@@H](CCC(=O)O)C(=O)N[C@@H](CCCNC(=N)N)C(=O)N[C@@H](C)C(=O)N[C@@H](C)C(=O)N[C@@H](CCC(N)=O)C(=O)N[C@@H](CC(=O)O)C(=O)N[C@@H](Cc1ccccc1)C(=O)N[C@H](C(=O)N[C@@H](CCC(N)=O)C(=O)N[C@@H](Cc1c[nH]c2ccccc12)C(=O)N[C@@H](CC(C)C)C(=O)N[C@@H](CC(C)C)C(=O)N[C@@H](CC(=O)O)C(=O)NCC(=O)NCC(=O)N1CCC[C@H]1C(=O)N[C@@H](CO)C(=O)N[C@@H](CO)C(=O)NCC(=O)N[C@@H](C)C(=O)N1CCC[C@H]1C(=O)N1CCC[C@H]1C(=O)N1CCC[C@H]1C(=O)N[C@@H](CO)C(N)=O)C(C)C)C(=O)O
EC50 (cAMP reporter) (GLP-1 receptor [1]): 0.008 nM | EC50 (cAMP reporter) (GIP receptor [2]): 0.026 nM | EC50 (cAMP reporter) (glucagon receptor [3]): 1.28 nM | activity (cAMP reporter), column GLP (GLP-1 receptor [4]): 0.008 | activity (cAMP reporter), column GIP (GIP receptor [5]): 0.026 | activity (cAMP reporter), column Glu (glucagon receptor [6]): 1.28

B6: Analog No. 61: Aib2, K10acyl, E16, Aib20, E21, L27, D28, G29 + CEX (SEQ ID NO: 37) (peptide)
peptide: H[Aib]QGTFTSDK([γGlu-Palmitoyl])SKYLDERRA[Aib]EFVQWLLDGGPSSGAPPPS-NH2
modifications: N-terminus assumed
SMILES: CCCCCCCCCCCCCCCC(=O)N[C@@H](CCC(=O)NCCCC[C@H](NC(=O)[C@H](CC(=O)O)NC(=O)[C@H](CO)NC(=O)[C@@H](NC(=O)[C@H](Cc1ccccc1)NC(=O)[C@@H](NC(=O)CNC(=O)[C@H](CCC(N)=O)NC(=O)C(C)(C)NC(=O)[C@@H](N)Cc1c[nH]cn1)[C@@H](C)O)[C@@H](C)O)C(=O)N[C@@H](CO)C(=O)N[C@@H](CCCCN)C(=O)N[C@@H](Cc1ccc(O)cc1)C(=O)N[C@@H](CC(C)C)C(=O)N[C@@H](CC(=O)O)C(=O)N[C@@H](CCC(=O)O)C(=O)N[C@@H](CCCNC(=N)N)C(=O)N[C@@H](CCCNC(=N)N)C(=O)N[C@@H](C)C(=O)NC(C)(C)C(=O)N[C@@H](CCC(=O)O)C(=O)N[C@@H](Cc1ccccc1)C(=O)N[C@H](C(=O)N[C@@H](CCC(N)=O)C(=O)N[C@@H](Cc1c[nH]c2ccccc12)C(=O)N[C@@H](CC(C)C)C(=O)N[C@@H](CC(C)C)C(=O)N[C@@H](CC(=O)O)C(=O)NCC(=O)NCC(=O)N1CCC[C@H]1C(=O)N[C@@H](CO)C(=O)N[C@@H](CO)C(=O)NCC(=O)N[C@@H](C)C(=O)N1CCC[C@H]1C(=O)N1CCC[C@H]1C(=O)N1CCC[C@H]1C(=O)N[C@@H](CO)C(N)=O)C(C)C)C(=O)O
EC50 (cAMP reporter) (GLP-1 receptor [1]): 0.006 nM | EC50 (cAMP reporter) (GIP receptor [2]): 0.002 nM | EC50 (cAMP reporter) (glucagon receptor [3]): 0.004 nM | activity (cAMP reporter), column GLP (GLP-1 receptor [4]): 0.006 | activity (cAMP reporter), column GIP (GIP receptor [5]): 0.003 | activity (cAMP reporter), column Glu (glucagon receptor [6]): 0.004

B7: peptide of SEQ ID NO: 171 (peptide)
peptide: H[Aib]EGTFTSDYSKYLDERAAQDFVQWLLDGGPSSGAPPPSK([γGlu-γGlu-Palmitoyl])G-NH2
EC50 (cAMP reporter) (GLP-1 receptor [13]): 0.005 nM | EC50 (cAMP reporter) (GIP receptor [14]): 0.038 nM | EC50 (cAMP reporter) (glucagon receptor [15]): 0.455 nM

B8: Glucagon Aib2, Aib16, amide (SEQ ID NO: 42) (peptide)
peptide: H[Aib]QGTFTSDYSKYLD[Aib]RRAQDFVQWLMNT-NH2
modifications: N-terminus assumed
SMILES: CSCC[C@H](NC(=O)[C@H](CC(C)C)NC(=O)[C@H](Cc1c[nH]c2ccccc12)NC(=O)[C@H](CCC(N)=O)NC(=O)[C@@H](NC(=O)[C@H](Cc1ccccc1)NC(=O)[C@H](CC(=O)O)NC(=O)[C@H](CCC(N)=O)NC(=O)[C@H](C)NC(=O)[C@H](CCCNC(=N)N)NC(=O)[C@H](CCCNC(=N)N)NC(=O)C(C)(C)NC(=O)[C@H](CC(=O)O)NC(=O)[C@H](CC(C)C)NC(=O)[C@H](Cc1ccc(O)cc1)NC(=O)[C@H](CCCCN)NC(=O)[C@H](CO)NC(=O)[C@H](Cc1ccc(O)cc1)NC(=O)[C@H](CC(=O)O)NC(=O)[C@H](CO)NC(=O)[C@@H](NC(=O)[C@H](Cc1ccccc1)NC(=O)[C@@H](NC(=O)CNC(=O)[C@H](CCC(N)=O)NC(=O)C(C)(C)NC(=O)[C@@H](N)Cc1c[nH]cn1)[C@@H](C)O)[C@@H](C)O)C(C)C)C(=O)N[C@@H](CC(N)=O)C(=O)N[C@H](C(N)=O)[C@@H](C)O
EC50 (cAMP reporter) (GLP-1 receptor [10]): 0.437 nM | EC50 (cAMP reporter) (GIP receptor [11]): 104 nM | EC50 (cAMP reporter) (glucagon receptor [12]): 0.309 nM
